Here are results for five molecules from US20180002415A1 (Chugai, published 2018).

Assay [1] deals with T1, recombinant cynomolgus monkey C5 (cynomolgus monkey, UniProt P01031 20-1676 (human entry), limits assumed).
T1 construct: also called cynoC5
T1 chain: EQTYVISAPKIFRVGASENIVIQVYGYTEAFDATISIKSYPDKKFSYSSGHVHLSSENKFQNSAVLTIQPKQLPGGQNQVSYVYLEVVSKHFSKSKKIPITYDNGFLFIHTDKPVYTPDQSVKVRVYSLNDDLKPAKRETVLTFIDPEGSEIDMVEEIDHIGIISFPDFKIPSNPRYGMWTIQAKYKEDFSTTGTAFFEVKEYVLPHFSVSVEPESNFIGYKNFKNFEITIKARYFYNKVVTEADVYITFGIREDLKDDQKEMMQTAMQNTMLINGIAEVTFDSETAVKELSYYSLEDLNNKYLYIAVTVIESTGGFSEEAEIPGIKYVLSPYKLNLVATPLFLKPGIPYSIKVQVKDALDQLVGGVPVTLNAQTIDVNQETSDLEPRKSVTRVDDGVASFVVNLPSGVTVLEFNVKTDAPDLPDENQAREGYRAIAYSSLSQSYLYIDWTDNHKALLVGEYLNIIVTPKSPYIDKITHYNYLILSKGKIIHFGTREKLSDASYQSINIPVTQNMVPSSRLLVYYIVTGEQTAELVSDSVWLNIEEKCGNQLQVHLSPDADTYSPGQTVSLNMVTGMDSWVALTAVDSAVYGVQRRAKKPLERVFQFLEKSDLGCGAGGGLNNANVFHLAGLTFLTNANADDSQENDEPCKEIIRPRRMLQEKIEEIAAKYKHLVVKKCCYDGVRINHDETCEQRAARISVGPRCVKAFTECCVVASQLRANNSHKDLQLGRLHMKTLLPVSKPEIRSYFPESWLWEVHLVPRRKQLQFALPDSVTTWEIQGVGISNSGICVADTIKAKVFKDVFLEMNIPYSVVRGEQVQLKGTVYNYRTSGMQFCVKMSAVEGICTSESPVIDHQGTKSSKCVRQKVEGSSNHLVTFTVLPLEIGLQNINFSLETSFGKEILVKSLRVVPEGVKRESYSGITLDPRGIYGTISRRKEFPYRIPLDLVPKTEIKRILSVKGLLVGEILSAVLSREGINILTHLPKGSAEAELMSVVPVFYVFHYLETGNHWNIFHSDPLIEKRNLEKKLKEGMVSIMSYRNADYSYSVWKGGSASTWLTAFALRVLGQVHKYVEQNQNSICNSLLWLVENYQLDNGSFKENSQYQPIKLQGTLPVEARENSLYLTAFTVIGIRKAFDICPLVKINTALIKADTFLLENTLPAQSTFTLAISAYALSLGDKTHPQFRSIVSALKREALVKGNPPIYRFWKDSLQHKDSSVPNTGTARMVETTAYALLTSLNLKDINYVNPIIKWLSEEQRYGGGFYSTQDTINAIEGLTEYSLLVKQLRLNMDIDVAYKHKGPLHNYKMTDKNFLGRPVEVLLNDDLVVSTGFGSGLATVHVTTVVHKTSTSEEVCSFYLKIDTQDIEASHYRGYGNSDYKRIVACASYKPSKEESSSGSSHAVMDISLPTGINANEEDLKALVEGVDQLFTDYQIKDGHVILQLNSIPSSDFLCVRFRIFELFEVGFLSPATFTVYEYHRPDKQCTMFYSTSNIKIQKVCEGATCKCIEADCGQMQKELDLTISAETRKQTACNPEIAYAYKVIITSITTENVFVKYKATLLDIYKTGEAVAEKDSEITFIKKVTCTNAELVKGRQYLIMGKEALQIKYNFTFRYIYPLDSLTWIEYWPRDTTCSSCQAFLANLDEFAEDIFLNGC
Description: SPR (Biacore), 37C, pH 7.4. Background: In SPR one partner is held on a chip, and binding of the other changes the refractive index at the surface.
Description: (§1) To observe the cross-reactivity of anti-C5 antibodies against human C5 (hC5) and cynomolgus monkey C5 (cynoC5), BIACORE® kinetics analysis was performed.

In assay [2] the target is T1, recombinant cynomolgus monkey C5. Briefly: SPR (Biacore), pH 7.4; KD on cynoC5 against KD on hC5.
Description: as §1
The target is the same in assay [3]. Briefly: SPR (Biacore), 37C, pH 7.4, Ab captured on ProA/G.
Description: as §1
The target of assay [4] is T2, C5 peptide 33-108 fused to GST-tag (human, UniProt P01031 33-108).
T2 construct: not shown: GST-tag (glutathione S-transferase); vector and linker not restated
Briefly: summary drawing of the binding reactions to C5 beta-chain fragments.

The target in assay [5] is T3, C5 peptide 45-111 fused to GST-tag (human, UniProt P01031 45-111).
T3 construct: not shown: GST-tag (glutathione S-transferase); vector and linker not restated
The assay is described as above.

Assay [6] concerns the target T4, C5 peptide 45-124 fused to GST-tag (human, UniProt P01031 45-124).
T4 construct: not shown: GST-tag (glutathione S-transferase); vector and linker not restated
The description is as above.

The target of assay [7] is T5, C5 peptide 52-124 fused to GST-tag (human, UniProt P01031 52-124).
T5 construct: not shown: GST-tag (glutathione S-transferase); vector and linker not restated
Described as above.

The target of assay [8] is T6, C5 peptide 33-111 fused to GST-tag (human, UniProt P01031 33-111).
T6 construct: not shown: GST-tag (glutathione S-transferase); vector and linker not restated
Described as above.

The target of assay [9] is T7, 161-340.
T7 construct: Expressed in E. coli
T7 GST fusion polypeptide: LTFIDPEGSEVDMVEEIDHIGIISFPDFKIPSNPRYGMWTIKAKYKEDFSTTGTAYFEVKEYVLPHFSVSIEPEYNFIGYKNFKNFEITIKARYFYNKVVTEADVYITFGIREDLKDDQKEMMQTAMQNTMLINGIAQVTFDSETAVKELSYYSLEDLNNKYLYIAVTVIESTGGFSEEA
Description: Western blot of E. coli lysates expressing GST-fused C5 beta-chain fragments. On the technique in general: A western blot detects proteins with antibodies after separation by electrophoresis.
Description: (§2) Anti-C5 monoclonal antibodies (MAbs) were tested for binding to C5 β-chain-derived peptides in Western blot analysis. […] The E. coli samples were harvested after incubation with 1 mM Isopropyl β-D-1-thiogalactopyranoside (IPTG) for 5 hours at 37° C., and centrifuged at 20000×g for 1 min to obtain pellets.

For assay [10], the target named is T8, 321-500.
T8 construct: Expressed in E. coli
T8 GST fusion polypeptide: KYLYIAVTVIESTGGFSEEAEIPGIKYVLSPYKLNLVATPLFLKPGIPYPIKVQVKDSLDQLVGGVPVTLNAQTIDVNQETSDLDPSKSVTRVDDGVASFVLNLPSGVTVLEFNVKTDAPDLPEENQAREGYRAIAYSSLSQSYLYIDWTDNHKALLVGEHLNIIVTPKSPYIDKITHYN
Described as above.
Description: as §2

For assay [11], the target named is T9, 481-660.
T9 construct: Expressed in E. coli
T9 GST fusion polypeptide: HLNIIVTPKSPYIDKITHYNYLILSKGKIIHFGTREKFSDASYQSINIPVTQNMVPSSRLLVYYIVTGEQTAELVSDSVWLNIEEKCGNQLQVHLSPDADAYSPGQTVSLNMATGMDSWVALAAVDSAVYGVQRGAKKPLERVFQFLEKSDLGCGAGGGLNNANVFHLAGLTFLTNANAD
The assay is described as above.
Description: as §2

Assay [12] deals with T7, 161-340. Briefly: summary drawing of the binding reactions to C5 beta-chain fragments.
Assay [13] concerns the target T8, 321-500. The description is as above.
The target in assay [14] is T9, 481-660. The assay is described as above.
Assay [15] addresses T2, C5 peptide 33-108 fused to GST-tag. Description: Western blot of E. coli lysates expressing GST-fused MG1-MG2-derived fragments; rhC5 (0.5 ug) as control lane.
Description: (§3) The anti-C5 MAbs were tested for binding to MG1-MG2 domain-derived peptides in Western blot analysis. […] The E. coli samples were harvested after incubation with 1 mM IPTG for 5 hours at 37° C., and centrifuged at 20000×g for 1 minute to obtain pellets. The pellets were suspended with the sample buffer solution (2ME+), and used for Western blot analysis.
Assay [16] has as its target T3, C5 peptide 45-111 fused to GST-tag. Described as above.
Description: as §3
The target of assay [17] is T4, C5 peptide 45-124 fused to GST-tag. The assay is described as above.
Description: as §3
Assay [18] has as its target T5, C5 peptide 52-124 fused to GST-tag. Described as above.
Description: as §3
The target of assay [19] is T6, C5 peptide 33-111 fused to GST-tag. The assay is described as above.
Description: as §3
Assay [20] has as its target recombinant MG1-MG2 domain of human C5 β-chain (human, UniProt P01031 20-225). Briefly: SPR (BIACORE T200, 37 C, pH7.4): antibody captured by ProA/G, MG1-MG2 domain injected (20 and 40 nM per paragraph 378; concentration of the curves not printed on the sheet).
Description: ProA/G (Pierce) was immobilized onto a CM4 sensorchip using amine coupling kit (GE Healthcare) according to the recommended settings by GE Healthcare. Antibodies and analytes were diluted into the respective running buffers, ACES pH7.4 and pH5.8 (20 mM ACES, 150 mM NaCl, 1.2 mM CaCl₂, 0.05% Tween 20, 0.005% NaN₃). […] The surface was regenerated using 25 mM NaOH. Kinetic parameters at both pH conditions were determined by fitting the sensorgrams with 1:1 binding model using BIACORE® T200 Evaluation software, version 2.0 (GE Healthcare).
The MG1-MG2 domain was injected at concentrations of 20 nM and 40 nM.

T5 sequence (P01031 52-124): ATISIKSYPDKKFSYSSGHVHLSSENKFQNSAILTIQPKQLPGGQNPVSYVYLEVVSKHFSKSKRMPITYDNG
T3 sequence (P01031 45-111): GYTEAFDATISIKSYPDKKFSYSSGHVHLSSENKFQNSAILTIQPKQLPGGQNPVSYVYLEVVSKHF
T2 sequence (P01031 33-108): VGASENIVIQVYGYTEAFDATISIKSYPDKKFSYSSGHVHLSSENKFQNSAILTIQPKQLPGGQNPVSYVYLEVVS
T4 sequence (P01031 45-124): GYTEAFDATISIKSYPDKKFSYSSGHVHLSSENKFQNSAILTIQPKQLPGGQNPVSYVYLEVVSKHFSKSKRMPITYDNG
T6 sequence (P01031 33-111): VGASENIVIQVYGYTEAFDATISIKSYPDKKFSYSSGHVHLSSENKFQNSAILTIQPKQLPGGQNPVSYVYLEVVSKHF

B1: CFA0672 (antibody, V domains shown)
VH: QSVEESGGRLVTPGTPLTLTCTASGFSLSGNAINWVRQAPGKGLEWIGCIYTGSDTTYYATWAKGRFTISKTSTTVDLKIASPTTEDTATYFCARGSGLWGPGTLVTVSS
VL: DVVMTQTPASVSAPVGGTVTIKCQASQNIYSLLAWYQQKPGQPPKLLIYHTSDLASGVPSRFRGSGSGTEFTLTISDLECADAATYYCQCTAYGSSDVGGTFGGGTTVVVE
notes: Chimeric, rabbit V regions; also called CFA0672-F760G4
With B1, the entries for the “fold weaker KD toward cynoC5 than toward hC5” value in assay [1] and in [2] were 8 fold and 8 times, respectively. Moreover, the Kd in assay [3] was 2.88 nM. For the same molecule, the binding result (in assay [4]; in assay [5]; in assay [6]; in assay [7]; in assay [8]; with 161-340 [9]) was “no binding” in each case. For the same molecule, the binding result with 321-500 [10] and with 481-660 [11] was “no binding” each time.

B2: CFA0366 (antibody, V domains shown)
VH: QSLEESGGDLVKPGASLSLTCTAAGLDFSSSYYMCWVRQAPGKGLEWIACIYAGSSGIIYYANWAKGRFTISRPSSTTVTLQMTSLTAADTATYFCATYPTYGDGGHAFNLWGPGTLVTVSS
VL: AQVLTQTPSSVSAAVGGTVTINCQSSQSVYSSDYLSWYQQKPGQPPKLLIYEASKLASGVPPRFSGSGSGTQFTLTISGVQCDDAATYYCQGTYYSSGWYFAFGGGTEVVVK
notes: Chimeric, rabbit V regions; also called CFA0366-F760G4
For B2, the Kd in assay [3] worked out at 17.9 nM. Also, the binding result (with 161-340 [12]; with 321-500 [13]; with 481-660 [14]; in assay [4]; in assay [5]; in [6]) was “no binding” in each case. Further, the binding result in assay [7] and in assay [8] was “no binding” each time.

B3: CFA0307 (antibody, V domains shown)
VH: QSLEESGGGLVKPGASLTLTCKASGIDFSNFYYICWVRQAPGKGLDLIACIYTVSGYTYYASWAKGRLTISKTSSTTVTLQMTSLTAADTATYFCARDLHAGITNLWGPGTLVTVSS
VL: AIEMTQTPFSVSAAVGGTVTIKCQASQNIYSNLAWYQQKPGQRPKLLIYGASNLESGVPSRFKGSGSGTEYTLTISDLECADAATYYCLQGYSYSNVDDAFGGGTEVVVK
notes: Chimeric, rabbit V regions; also called CFA0307-F760G4
For B3, in [3], the Kd was determined as 7.68 nM. Besides, the binding result (in the assay with 321-500 [13]; with 481-660 [14]; in assay [4]; in assay [5]; in assay [6]; in assay [7]) was “no binding” throughout. For the same molecule, the binding result (in assay [8]; with 161-340 [9]) was “no binding” each time.

B4: CFA0305 (antibody, V domains shown)
VH: QSLEESGGDLVKPGASLAVTCTASGFSSSSSYYMCWVRQAPGKGLEWIGCIYTGSGATYYASWAKGRFTISKTSSTTVTLQMTSLTVADTATYFCASDGGYVTPTHAMYLWGPGTLVTVSS
VL: DVVMTQTPASVSAAVGGTVTIKCQASQNIGSDLAWYQQKPGQPPRLLIYGASKLASGVSSRFSGSGSGKEFTLTISDLECADAVTYYCQCTFVGSSYGNAFGGGTEVVVK
notes: Chimeric, rabbit V regions; also called CFA0305-F760G4
On to B4, for which the Kd in [3] is 55.4 nM. The binding result (with 161-340 [9]; with 321-500 [10]; with 481-660 [11]; in assay [15]; in assay [16]; in [17]) was “no binding” in each case. The binding result in assay [18] and in assay [19] was “no binding” each time.

B5: eculizumab-F760G4 (antibody, human IgG4 S228P, kappa)
heavy: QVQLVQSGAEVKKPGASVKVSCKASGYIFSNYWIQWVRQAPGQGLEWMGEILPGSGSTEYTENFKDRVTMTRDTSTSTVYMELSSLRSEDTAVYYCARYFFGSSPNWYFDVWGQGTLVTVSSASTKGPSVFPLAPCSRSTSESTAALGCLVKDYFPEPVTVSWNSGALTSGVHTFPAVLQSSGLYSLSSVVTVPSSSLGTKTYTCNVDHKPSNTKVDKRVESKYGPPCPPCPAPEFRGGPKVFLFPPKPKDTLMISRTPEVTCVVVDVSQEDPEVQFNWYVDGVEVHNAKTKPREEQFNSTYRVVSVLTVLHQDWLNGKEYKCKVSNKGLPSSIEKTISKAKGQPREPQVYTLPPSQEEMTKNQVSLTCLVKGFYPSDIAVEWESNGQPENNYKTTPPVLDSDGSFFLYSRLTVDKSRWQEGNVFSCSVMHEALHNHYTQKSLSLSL
light: DIQMTQSPSSLSASVGDRVTITCGASENIYGALNWYQQKPGKAPKLLIYGATNLADGVPSRFSGSGSGTDFTLTISSLQPEDFATYYCQNVLNTPLTFGQGTKVEIKRTVAAPSVFIFPPSDEQLKSGTASVVCLLNNFYPREAKVQWKVDNALQSGNSQESVTEQDSKDSTYSLSSTLTLSKADYEKHKVYACEVTHQGLSSPVTKSFNRGEC
notes: EcuH VH fused to modified human IgG4 CH F760G4; EcuL VL fused to k0 light chain constant region
For B5, the binding result in [20] was “no binding (tested: 40 nM (not printed on the sheet))”.

As a reminder, the Kd is the concentration at which binding is half-saturated.
